The results in this text go back to US20100303858A1.

For test [1], the target named is gp120ΔV1/V2sdCD4 chimeric protein (HIV-1 YU2) (UniProt P35961). The test can be described thus: SPR (BIACORE 2000), antibody immobilized on CM4 chip, chimeric protein as analyte, 1:1 Langmuir fit. Background: Surface plasmon resonance follows binding to a sensor surface in real time, without labels.
Test [2] deals with gp120ΔV2sdCD4 chimeric protein (HIV-1 YU2) (UniProt P35961). The test is described as above.
In test [3] the target is gp120/sCD4 complex (HIV-1 YU2) (UniProt P35961). The test can be described thus: SPR (BIACORE 2000), antibody immobilized on CM4 chip, gp120/sCD4 as analyte, 1:1 Langmuir fit.
The target is the same in test [4]. The test can be described thus: SPR, antibody immobilized; KD of gp120/sCD4 against KD of gp120ΔV1/V2sdCD4 and gp120ΔV2sdCD4.
Test [5] addresses wild type gp120YU2 (HIV-1 YU2) (UniProt P35961). The test can be described thus: ELISA, gp120 captured by D7324, bound antibody as OD 490 nm. (In general: ELISA stands for enzyme-linked immunosorbent assay.)
For test [6], the target named is gp120/sCD4 complex (HIV-1 YU2) (UniProt P35961). Put plainly: ELISA, gp120/sCD4 captured by D7324, bound antibody as OD 490 nm.

Consider human CD4i monoclonal antibody 4.8D, for which the values for the Kd in test [1], in test [2] and in test [3] were 0.015 nM, 0.038 nM and 1.2 nM, respectively. In addition, the koff – broadly, the rate constant with which the complex falls apart – in test [1] was found to be 0.000149 s⁻¹; in test [2] it was 0.000197 s⁻¹; in test [3] it was 0.000212 s⁻¹. Further, the on-rate (kon) (in general, the rate constant with which the complex forms) in test [1] is 9.45e+06 M⁻¹ s⁻¹; in test [2], 5.2e+06 M⁻¹ s⁻¹; in test [3] it was 177000 M⁻¹ s⁻¹. In test [4], the fold KD against the chimeric proteins was found to be 100 fold.
Turning to human CD4i monoclonal antibody E51, in test [1], the dissociation constant Kd (usually a measure of binding affinity in units of concentration) came to 0.012 nM, the koff worked out at 0.000516 s⁻¹ and the association rate constant (kon) stood at 4.27e+07 M⁻¹ s⁻¹. In test [2], the Kd is 0.013 nM, the koff worked out at 0.000398 s⁻¹ and the association rate constant (kon) amounted to 3.08e+07 M⁻¹ s⁻¹. In addition, in test [3], the Kd amounted to 0.21 nM, the koff turned out to be 0.000169 s⁻¹ and the kon stood at 796000 M⁻¹ s⁻¹.
With human MAb F105 (antibody), the values for the EC50 (read off the curve) in test [5] and in test [6] were 0.1 µg/mL and 0.3 µg/mL, respectively.
